B1: MamM-CTD (cytosolic C-terminal domain of the magnetosome CDF transporter MamM), wild type (domain or fragment, Magnetospirillum gryphiswaldense)
chain: EAVQNRIVEAAERVPGVRGVIHLRARYVGQDIWADMIIGVDPENTVEQAHEICEAVQAAVCGKIRRIESLHVSAEAREIGDTTKPSFSDQPLSFDEVMLSKVDN
notes: MamM, cation diffusion facilitator of Magnetospirillum gryphiswaldense, cytosolic C-terminal domain (CTD); also called wild-type MamM-CTD; apo-MamM-CTD; source: recombinant, purified; expression and purification 'performed as previously described [20], [29], [30]'
B2: MamM-CTD V260W mutant (domain or fragment, Magnetospirillum gryphiswaldense)
chain: EAVQNRIVEAAERVPGVRGVIHLRARYVGQDIWADMIIGVDPENTWEQAHEICEAVQAAVCGKIRRIESLHVSAEAREIGDTTKPSFSDQPLSFDEVMLSKVDN
notes: MamM, cation diffusion facilitator of Magnetospirillum gryphiswaldense, cytosolic C-terminal domain (CTD) with V260W; The mutation mimics the W325 allele of human ZnT-8; source: recombinant, purified; expression, purification and site-directed mutagenesis 'performed as previously described [20], [29], [30]'
B3: MamM-CTD V260R mutant (domain or fragment, Magnetospirillum gryphiswaldense)
chain: EAVQNRIVEAAERVPGVRGVIHLRARYVGQDIWADMIIGVDPENTREQAHEICEAVQAAVCGKIRRIESLHVSAEAREIGDTTKPSFSDQPLSFDEVMLSKVDN
notes: MamM, cation diffusion facilitator of Magnetospirillum gryphiswaldense, cytosolic C-terminal domain (CTD) with V260R; The mutation mimics the R325 allele of human ZnT-8; source: recombinant, purified; expression, purification and site-directed mutagenesis 'performed as previously described [20], [29], [30]'

Target: the molecule itself
Assay: SEC; Superdex200; elution volumes of the mutants compared with wild-type MamM-CTD; self-association (dimer)

| Protein | stoichiometry N |
| --- | --- |
| B1 | 2 |
| B2 | 2 |
| B3 | 2 |

— publication PMC4018254, “Bacterial Magnetosome Biomineralization - A Novel Platform to Study Molecular Mechanisms of Human CDF-Related Type-II Diabetes” (PLoS ONE, 2014)
